In the supplement of paper PMC10567573:
± gives the standard deviation.

Experiment: protein stability index of a GFP-peptide fusion (GPS, HEK-293T) (PSI 1-6); higher = more stable
[1] = treatment: DMSO, c terminus: a fixed tail appended
[2] = treatment: MLN4924 1 uM, 8 h, c terminus: a fixed tail appended
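Further: 24-mer peptide tiles fused after GFP, lentivirally expressed, FACS-sorted into six equal bins by GFP/DsRed ratio, decoded by Illumina sequencing, PSI is the read-weighted mean bin number.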

Sequence | protein stability index [1] | protein stability index [2] | protein stability index (treatment: DMSO, c terminus: native) | protein stability index (treatment: MLN4924 1 uM, 8 h, c terminus: native)
WTTEQQQRFHEICSNLVKTRRRAV [ARL6IP1] | 2.8 ± 0.2 | 3.07 ± 0.41 | – | –
WYRPMYKAFRSDSSFNFFVFFFIF [SCAMP3] | 2.94 ± 0.34 | 2.86 ± 0.54 | – | –
YAVLAAEPELQVGIDIMKTSFPGR [AASDHPPT] | 2.61 ± 0.28 | 2.73 ± 0.4 | – | –
YCKTSDGRVVPESQCQMETKPLAI [ADAMTSL2] | 3.94 ± 0.33 | 4.32 ± 0.11 | – | –
YCLTCEVPTCSMCKVFGIHKACEV [TRIM63] | 2.69 ± 0.45 | 2.8 ± 0.33 | – | –
YEAQDGRGPDNALLEATGGAAGRS [KCTD10] | 5.37 ± 0.34 | 5.41 ± 0.25 | – | –
YENCLQALADVEVKYIVERTMLDF [NLN] | 2.08 ± 0.28 | 2.22 ± 0.51 | – | –
YFGSFATVGLLWFAHHSLFLHVRK [TMEM175] | 3.17 ± 0.56 | 3.15 ± 0.42 | – | –
YHRETEGEEQAQLLHVSSPNLASD [KCNA1] | 5.16 ± 0.3 | 5.21 ± 0.27 | – | –
YINFRHLYKQRRRRYGQKKKKIH [HACD3] | – | – | 2.12 ± 0.29 | 2.74 ± 0.55
YKCLECGKAFSQNSGLINHQRIHT [ZNF24] | 4.95 ± 0.23 | 4.57 ± 0.26 | – | –
YLLDYPNNLLSAPPPDVTQLTPPS [ANKRD17] | 3.23 ± 0.14 | 3.44 ± 0.2 | – | –
YLNGASVLPHKSIGESVPEPRIIM [GMPPB] | 2.79 ± 0.35 | 2.84 ± 0.34 | – | –
YNKPTDDIVLMAQALEKIFLQKVA [BRD3] | 2.45 ± 0.54 | 2.06 ± 0.44 | – | –
YPEDSSWAAKAPGASSREEPPEEP [SPDEF] | 4.21 ± 0.43 | 4.64 ± 0.51 | – | –
YPIIFVYYLRKGKKINSNQLENEQ [SPANXN3] | 2.37 ± 0.33 | 2.14 ± 0.26 | – | –

Sequence | protein stability index [1] | protein stability index [2] | protein stability index (treatment: DMSO, c terminus: native) | protein stability index (treatment: MLN4924 1 uM, 8 h, c terminus: native)
YQILTLEKDQEQVVMNLDSRLLIF [GMCL1] | 2.77 ± 0.67 | 2.66 ± 0.7 | – | –
YQLCHALRFLHENQLTHTDLKPEN [CLK3] | 4.62 ± 0.23 | 4.76 ± 0.37 | – | –
YQRNLPRPGQAPIGNPPVGPIGGM [ZNF207] | 2.87 ± 0.32 | 3.31 ± 0.41 | – | –
YQSGGRIRRPVNVPIDIFSEEIRF [KCNA3] | 2.49 ± 0.43 | 3.11 ± 0.37 | – | –
YQVAALQGDLASLRAELQGHHAEK [TNFSF13B] | 3.71 ± 0.14 | 3.88 ± 0.099 | – | –
YRHLLEGEDCKLPPQPCATACKPV [KRT36] | 3.97 ± 0.2 | 3.93 ± 0.11 | – | –
YRMRNVHPKPKLVRVLESLLVSLV [CLCN6] | 2.44 ± 0.75 | 2.18 ± 0.35 | – | –
YSKPGLSMRLLESKKGLSFFAFEH [TCF25] | 2.12 ± 0.33 | 2.08 ± 0.38 | – | –
YTAQQDQELDIKKNERLWLLDDSK [NCK2] | 4.37 ± 0.27 | 4.65 ± 0.15 | – | –
YTFGSNQHGQLGTNTRRGSRAPCK [NEK8] | 4.27 ± 0.52 | 4.22 ± 0.39 | – | –
YTVNFLEAKEGDLHRIEIPFKFHM [CARM1] | – | 3.15 ± 1.1 | – | –
YTYRDYGHSSSRDDYPSRGYSDRD [RBMX] | 3.94 ± 0.3 | 4.02 ± 0.26 | – | –
YVRPERLSPISHGNTIALFFRSLL [TCF25] | 2.59 ± 0.4 | 2.71 ± 0.42 | – | –
YVYFFCTVPEILVHNIVIFMRTSV [TMEM106C] | 3.13 ± 0.43 | 2.92 ± 0.37 | – | –
YWDGSGHRRTVKMRKGNTMQQFLQ [FAM50A] | 2.74 ± 0.12 | 2.72 ± 0.24 | – | –
